Reference: the DeepSol protein solubility set

Test: soluble on expression in E. coli; label from the status in PepcDB or PDB records

| Sequence | soluble on expression in E. coli |
| --- | --- |
| MSRGGKGGDGDTRGGGGENGNQNNKGGNDEGGNEIEVPSMEELDGLADKIADEFVSQGMKIYQTLDPETRPYPDEYREGLRSQVEELPEKFKEFYTPGPGEFTAKLDLIDELTRKLDTQAGDFNTGEISGHVHDAMDNMGEWEGALSISFRKGYLDPLYEGIIPNHGRVLALLHDNFQAMRDIYAEGRKSLKKIGEDGLSAMEQADDVDGAAVVTALTVLAAAFGLGFAGLAAVPGIATAAGVAGAAVAGGLAVASDQAPEPEEIPLAGSSAEDVLVNIYDALSKLEDDILTKEAELIDTILRGCDETLELVGDTTENSMLVPKMPDLVGTALDDYHQISEGLNQFD | not soluble |
| MNNDLAPHLDIALRHSPPGLAATPIPRVDICVGQGFTEKAPCLYRSMICFILQGSKRVAINDNLLSYDSEHYLISALDLPLIGQILDAEDGQPYVAVSLVLDPALLAVLAASMPAVREREQKGIGITINPMSAPLRDTLLRLLSLLDTPDDIPILAPMVERELLYRLLQGPQGRLL | not soluble |
| EEKLVKIAGFGGQGVLSMGLTLAEAACRDQKYVSWYPSYGPEQRGGTSNCSVIISGHEIGSPVVYSPGVLIALNKPSLENFAKDVKTGGTIIYDENIGDFEIPNGVTAIKVPASKIATEMGVSRAANTVMLGVLSALGYTGLSESVFVGAIEQTFSKKPKLIPINVEILNAGISWAKE | not soluble |
| MSQVSTEFIPTRIAILTVSNRRGEEDDTSGHYLRDSAQEAGHHVVDKAIVKENRYAIRAQVSAWIASDDVQVVLITGGTGLTEGDQAPEALLPLFDREVEGFGEVFRMLSFEEIGTSTLQSRAVAGVANKTLIFAMPGSTKACRTAWENIIAPQLDARTRPCNFHPHLKK | soluble |
| MTEPRSYTIEEIASLLKVSKLTVYDLVKKGKLPAFRVGRQMRITADDLRRFIAGQKGEASTVFSAVSRPTETAFRPIIISGQDMALDLLGVHLEKGGPYQSLRTYTSSLNGLIALYKGQCDIVSVHLFDGQTGEYNRPYVEKLLTGHAYIMVNLMRRPIGFYVPKGNPRGIHTWSDLGRSDVVIVNREKGAGARVLLDEQLRLHGLSPSAIRGYEREETSHLSVASAVAAGLADVGIGTEKVARMAGVEFIPLMNEQYDVVMLRTPENESLIASVLDVLRSDSFRAELEALGGYDVSQTGRIMAEYG | not soluble |
| MRGSHHHHHHGSSEPLILDAPNADACIIWLHGLGADRTDFKPVAEALQMVLPSTRFILPQAPSQAVTVNGGWVMPSWYDILAFSPARAIDEDQLNASADQVIALIDEQRAKGIAAERIILAGFSQGGAVVLHTAFRRYAQPLGGVLALSTYAPTFDDLALDERHKRIPVLHLHGSQDDVVDPALGRAAHDALQAQGVEVGWHDYPMGHEVSLEEIHDIGAWLRKRL | soluble |
| MGSDKIHHHHHHMTNYIEEYCAQIRRMGSAGLIAKPILVDQDGTYTMTYVPHEHLNLGARLVLVSTTPGHAHVRLAAAVTEELLQARTPGRVIQRENKRRVELGGQLIRPNLIRMLDHFRAPELVGLPHAAALWNEGFEQFQPLALLPCATTRRGLAFNGTLEDLLAAPMLRAAFEAHFLGALRQMRPDAFYIALGRTAWSGLRHAASRRLLAKHQLLGMMPVPARAGNMVRYFLREISANDLSPNDPVRHRVDWLDAAHTELMANVQKVRAANMPPEGPNYLIA | not soluble |
| MIISDKFSLEAMCATTITDVKAGDEIILYGQKLTDENSCVTIKTDRVDIISSGNFIKYPNSTDIYDFDNKIDEWSFIIVEGVVNGNTIELNDKSTF | not soluble |
| MSLNVIDTLPAFRDYCSELASSHGSLAADAERASGFRYGHEDWLVQFKRDGAGIGLLDPQALAAAGADWNDFNRAVGDAVWILHDSLQDLPGFDELGMEPQRLFDTEIAARLLGLKRFGLAAVTEHFLGLTLAKEHSAADWSYRPLPRDWRNYAALDVELLIELETKMRAELKRQGKMEWAQEEFDYALKEGLGPRKEHLIPWMHVSHITEVMRDRQALAIVRALWTRRDELAREYDIAPTLLLSDSSIIEVAKRKPHNAAQFRSIRSINERVRIHTDSEQDKMFERYAPIQRKIKPSMWKNIIQDALALPPSEWPDVDGGAARRHESQSASAPKSIRVWKERYPERLQVLNRVRKAVSQIAEDTRTPVEIVIKPQYLRNLCWTDEPRKRDVARFLSEQGARDWQVSLVAESVSRAIEGHHHHHH | not soluble |
| MFEIATAKVDNMRVSIVGGGFAGLAAAQLAEEVTSDVHLYDKGTYSGDRRGAWGEMVWDYSQLPLDRHVPGYVREATTGIFIGSDGKTAINVPDGVILNRGELEKHWASTLEETEIIADAEVDEAEFRKLSAESDLLIDATGQFPISRRFTSLSYDVACPTLSGRIEADFSHLYPEPRALAYENYFLWIVPQSPDEATIGLGCQEDKSPAELYEDMRQLLAEVDIEPPERETLYSGTDVSNGLRSLSDCSYELNDCTVHIAGDAIGLANRLTGFGMVHAAQSGQAAVRSFVQGESYTRRLLCQNFWTKAVTGVVSPVHHTIGLDGIARLAKSDIEYQESFEPQQPTDILSAVRIFILEHHHHHH | not soluble |
| GKLVRRVLSINEVLGYNPDKGGISFIEAFSWDPVTDTHVFSAMGSSYILENKIATRLGIPGKKKKAIYDEIEKRAKILERLSDEGIVNYWEFFNTIAKITKSGMLRIQ | not soluble |
| MSLSKSTFEIKNGHFYRNGKITPVLSGEMHYARIPHQYWRHRLQMMKGMGLNTVATYVFWNLHEPEPGKWDFTGDKNLAEFIKTAGEEGMMVILRPGPYVCAEWEFGGYPWWLQNVKGMEIRRDNPEFLKYTKAYIDRLYKEVGSLQCTKGGPIVMVQCENEFGSYVAQRKDIPLEEHRAYNAKIKQQLADAGFNVPLFTSDGSWLFEGGATPGALPTANGESDIENLKKVVDQYHDGKGPYMVAEFYPGWLSHWAEPFPQIGASGIARQTEKYLQNDVSFNFYMVHGGTNFGFTSGANYDKKRDIQPDMTSYDYDAPISEAGWVTPKYDSIRNVIKKYVKYTIPEAPAPNPVIEIPSIQLNKVADVLAFAEKQKPVSSDTPLTFEQLNQGYGYVLYTRHFNQPISGTLEIPGLRDYAVVYVDGEQVGVLNRNTKTYSMEIEVPFNATLQILVENMGRINYGSEIVHNTKGIISPVQIAGKEIVGGWDMYQLPMDEMPDLTKLKADTHKNVPSEVAKLKGCPVLYEGTFTLDKVGDTFMDMESWGKGIVFVNGVNIGRYWKVGPQQTLYVPGVWLKKGENKIVIFEQLNETPQTEVKTVKTPVLMKLKGEGHHHHHH | soluble |
| MPRYCIVNADDFGYSKGVNYGILEAFQHGVVTSATLMANMPAAEHAARLAKEHPELGVGIHFVLTCGRPLADVPSLVNENGEFPRRGEALAGARRSDIERELAAQLERVFSLGLSPTHIDSHHHVHEHPNVFPVVEQLAERYRLPIRPVRTTRPHRLATVDVFFPDFYGDGLTKDHFLTLIDRIGDGQTAEVMCHPAYMDAPLAAGSSYCRQRIEELAVLTDPALSKEIAERGVQLITYREFYQL | not soluble |
| MAHHHHHHMSSAHKPTTQEAINFFKQYREKFQRSSSGGNSPSQNSVNASPQQNIVTQVQQVDVVPDLTTRSIIPMNRRNGTTTTRLDLLRKSPTNCSPCLVQEVEIKPLLPPLPFASVPKVTLVLDVDETLVHSTFQPSSDVVYDKVLLVPSEGKTYTVSVKYRPYLEDFLRFVSRRFEVVIFTASMRAYCDKLMDEIDPHGILGNLRLFREHCTFSERSYVKDLHRLGRDLRRVVILDNSPAAYSFQQRNAIPIKTWINDPKDRELFLLLPLLDRLAMCDSVYSELDPYNARGCDYL | not soluble |
| SNAEMSYELAQHGRSTLPRELAVYALEGPFFFAAAETFERVMGSIQETPQILILRLKWVPFMDITGIQTLEEMIQSFHKRGIKVLISGANSRVSQKLVKAGIVKLVGEQNVYPVFEGALSAALTEIEAQP | soluble |
| AHHHHHHGSIRASKRALSVEYAIRDVVLPARELEKKGIKVIRLNIGDPVKFDFQPPEHMKEAYCKAIKEGHNYYGDSEGLPELRKAIVEREKRKNGVDITPDDVRVTAAVTEALQLIFGALLDPGDEILVPGPSYPPYTGLVKFYGGKPVEYRTIEEEDWQPDIDDIRKKITDRTKAIAVINPNNPTGALYDKKTLEEILNIAGEYEIPVISDEIYDLMTYEGEHISPGSLTKDVPVIVMNGLSKVYFATGWRLGYMYFVDPENKLSEVREAIDRLARIRLCPNTPAQFAAIAGLTGPMDYLKEYMKKLKERRDYIYKRLNEIPGISTTKPQGAFYIFPKIEVGPWKNDKEFVLDVLHNAHVLFVHGSGFGEYGAGHFRAVFLPPIEILEEAMDRFEKFMKERLKE | soluble |
| ASDRQLGPPRMCEPSPREQLMESIRKGKELKQITPPEA | soluble |
| VDWTDAERSAIVGLWGKISVDEIGPQALARLLIVSPWTQRHFSTFGNLSTPAAIMGNPAVAKHGKTVMHGLDRAVQNLDDIKNTYATLSVMHSEKLHVDPDNFRLLADCITVCVAAKLGPAVFSADTQEAFQKFLAVVVSALGRQYH | soluble |
| MGSDKIHHHHHHMKIALIQPKMNKRPMDTDLKTRMSPPLSLLTLMGLTPEGHEVIMVNENVEKIDYACGAELVGITITLDVMPRAVEIAEEFHRLGIPVVAGGIHVTSSPDECRGYFDAICIGAAERVWERMIEDAEESRLQQVYHDMTDFRGEEIASPAYHRIDKNRYLYTNIMTTSRGCPNRCGFCYNSCRNRMYIRRPVTDVLRDIEGLGTRHILFIDDNFIGVPAYTRELLNHLRGRELKWSAAVTTKIADYPDVLDLMAETGCQSLFIGFESINNSSLHGVNKDNQFEKYERIVTAIHSRGIMINASMVFGLDGDEPDVFQRTLDWLVKNKIETLTSHILTPYPGTELHGRMKEEGRILDHELSRYNTAHVVFQPKGMTAEELYKGYLWIYREFYSFPNIWRRRPEHKAQRKSFFLFNILYRKFGGLTSVLARIIPMRTVGRLAARISYRVK | not soluble |
| MSLTAQIRLAEPADLNDDTLRARAVAAARGDQRFDVLITGGTLVDVVTGELRPADIGIVGALIASVHEPASRRDAAQVIDAGGAYVSPGLIDTHMHIESSMITPAAYAAAVVARGVTTIVWDPHEFGNVHGVDGVRWAAKAIENLPLRAILLAPSCVPSAPGLERGGADFDAAILADLLSWPEIGGIAEIMNMRGVIERDPRMSGIVQAGLAAEKLVCGHARGLKNADLNAFMAAGVSSDHELVSGEDLMAKLRAGLTIELRGSHDHLLPEFVAALNTLGHLPQTVTLCTDDVFPDDLLQGGGLDDVVRRLVRYGLKPEWALRAATLNAAQRLGRSDLGLIAAGRRADIVVFEDLNGFSARHVLASGRAVAEGGRMLVDIPTCDTTVLKGSMKLPLRMANDFLVKSQGAKVRLATIDRPRFTQWGETEADVKDGFVVPPEGATMISVTHRHGMAEPTTKTGFLTGWGRWNGAFATTVSHDSHNLTVFGGNAGDMALAANAVIGTGGGMAVASEGKVTAILPLPLSGLVSDAPLEEVARAFEDLREAVGKVVEWQPPYLVFKACFGATLACNIGPHQTDMGIADVLTGKVMESPVIEVLGEGHHHHHH | soluble |
| MRSMWALLSVADKRGIVDFARGLAELGFRLLATGGTYRALREAGLPVTYISDFTGFPEILEGRVKTLHPKVHAALLARPDQEEELKALGLERIGVLAVNLYPFRETVARGASFAEALEQIDIGGPAMLRAAAKNHQAVLPVCDPEDYPRVLEALKAGPSPDFRQKLARKAFAHTALYDAAIAEWLSGEKFPEEKLLALRREASLRYGENPHQEAALYRVVGERGPLLEAQVLQGKAMSFNNYLDAEAAWNLVSEFAEPACVAVKHQNPCGVALGETPLEAYRKAYEADPVSIFGGIVAFNRPLDGPTAEALAEVFLEVVLAPSFSPEARAVLARKKNLRLLQVPFPAQGPYLDLRRLRGGVLLQDADTEDPAEPKVVTERAPTPEEWPDLRFAWKVVKHVRSNAIVVAKGGMTLGIGVGQTNRLAAARHALEAAGERAKGAVLASDAFFPFDDVVRLAASYGIAAIIQPGGSVRDQDSIRAAEEAGIAMVFTGVRHFRH | soluble |
